Results as given in US20140271635A1 (Novartis, published 2014).

Target: T1, full length human CD19 expressed on mouse preB cell line 300.19 (300.19-hsCD19FL) (human, UniProt P15391 20-556)
T1 construct: whole, on cells; also called hCD19; 300.CD19
T1 sequence (looked up): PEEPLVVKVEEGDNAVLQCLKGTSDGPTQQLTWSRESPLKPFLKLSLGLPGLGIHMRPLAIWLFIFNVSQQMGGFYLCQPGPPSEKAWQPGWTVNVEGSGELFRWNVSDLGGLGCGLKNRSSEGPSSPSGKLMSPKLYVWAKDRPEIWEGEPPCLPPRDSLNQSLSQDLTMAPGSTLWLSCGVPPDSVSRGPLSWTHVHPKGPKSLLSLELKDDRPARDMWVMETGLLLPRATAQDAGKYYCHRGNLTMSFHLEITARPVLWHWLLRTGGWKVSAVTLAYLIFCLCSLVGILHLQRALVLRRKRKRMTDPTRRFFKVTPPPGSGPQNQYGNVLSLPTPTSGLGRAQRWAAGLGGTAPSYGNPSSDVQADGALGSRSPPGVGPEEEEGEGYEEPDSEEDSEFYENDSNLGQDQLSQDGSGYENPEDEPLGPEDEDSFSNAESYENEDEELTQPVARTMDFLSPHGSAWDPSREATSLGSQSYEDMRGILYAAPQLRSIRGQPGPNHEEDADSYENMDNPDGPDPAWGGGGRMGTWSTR
Assay: flow cytometry on mouse 300.19 cells expressing hCD19, His-tagged scFv
Procedure: Mouse cell line 300.CD19 were grown in RPMI 1640 with 0.5 mg/ml Zeocin. Around 5e5 cells/per well were transferred to the BD Falcon 96 well plate. The cells were spin down at 900 rpm (Sorval Legend XT centrifuge) for 3 minutes. The supernatant were removed. Anti-CD19 scFv protein samples were diluted in DPBS with 5% FBS. The samples were added into the wells, mixed well with the cells and incubated for 1 hour. The cells were washed twice in the DPBS with 5% FBS. The cells were incubated with antipoly His PE (R&D) for 1 hour, washed twice before FACS analysis (LSRII from BD Biosciences).

Binder | binding result
100796 CAR7 - Soluble scFv (scFv, Built here without the leader) scFv: QVQLQESGPGLVKPSETLSLTCTVSGVSLPDYGVSWIRQPPGKGLEWIGVIWGSETTYYSSSLKSRVTISKDNSKNQVSLKLSSVTAADTAVYYCAKHYYYGGSYAMDYWGQGTLVTVSSGGGGSGGGGSGGGGSGGGGSEIVMTQSPATLSLSPGERATLSCRASQDISKYLNWYQQKPGQAPRLLIYHTSRLHSGIPARFSGSGSGTDYTLTISSLQPEDFAVYFCQQGNTLPYTFGQGTKLEIKHHHHHHHH | binds
100798 CAR8 - Soluble scFv (scFv, Built here without the leader) scFv: QVQLQESGPGLVKPSETLSLTCTVSGVSLPDYGVSWIRQPPGKGLEWIGVIWGSETTYYQSSLKSRVTISKDNSKNQVSLKLSSVTAADTAVYYCAKHYYYGGSYAMDYWGQGTLVTVSSGGGGSGGGGSGGGGSGGGGSEIVMTQSPATLSLSPGERATLSCRASQDISKYLNWYQQKPGQAPRLLIYHTSRLHSGIPARFSGSGSGTDYTLTISSLQPEDFAVYFCQQGNTLPYTFGQGTKLEIKHHHHHHHH | binds
103101 CAR1 Soluble scFv (scFv, Built here without the leader) scFv: EIVMTQSPATLSLSPGERATLSCRASQDISKYLNWYQQKPGQAPRLLIYHTSRLHSGIPARFSGSGSGTDYTLTISSLQPEDFAVYFCQQGNTLPYTFGQGTKLEIKGGGGSGGGGSGGGGSQVQLQESGPGLVKPSETLSLTCTVSGVSLPDYGVSWIRQPPGKGLEWIGVIWGSETTYYSSSLKSRVTISKDNSKNQVSLKLSSVTAADTAVYYCAKHYYYGGSYAMDYWGQGTLVTVSSHHHHHHHH | binds
103102 CAR2 - Soluble scFv (scFv, Built here without the leader) scFv: EIVMTQSPATLSLSPGERATLSCRASQDISKYLNWYQQKPGQAPRLLIYHTSRLHSGIPARFSGSGSGTDYTLTISSLQPEDFAVYFCQQGNTLPYTFGQGTKLEIKGGGGSGGGGSGGGGSQVQLQESGPGLVKPSETLSLTCTVSGVSLPDYGVSWIRQPPGKGLEWIGVIWGSETTYYQSSLKSRVTISKDNSKNQVSLKLSSVTAADTAVYYCAKHYYYGGSYAMDYWGQGTLVTVSSHHHHHHHH | binds
103104 CAR 3 - Soluble scFv (scFv, Built here without the leader) scFv: QVQLQESGPGLVKPSETLSLTCTVSGVSLPDYGVSWIRQPPGKGLEWIGVIWGSETTYYSSSLKSRVTISKDNSKNQVSLKLSSVTAADTAVYYCAKHYYYGGSYAMDYWGQGTLVTVSSGGGGSGGGGSGGGGSEIVMTQSPATLSLSPGERATLSCRASQDISKYLNWYQQKPGQAPRLLIYHTSRLHSGIPARFSGSGSGTDYTLTISSLQPEDFAVYFCQQGNTLPYTFGQGTKLEIKHHHHHHHH | binds
103106 CAR4 - Soluble scFv (scFv, Built here without the leader) scFv: QVQLQESGPGLVKPSETLSLTCTVSGVSLPDYGVSWIRQPPGKGLEWIGVIWGSETTYYQSSLKSRVTISKDNSKNQVSLKLSSVTAADTAVYYCAKHYYYGGSYAMDYWGQGTLVTVSSGGGGSGGGGSGGGGSEIVMTQSPATLSLSPGERATLSCRASQDISKYLNWYQQKPGQAPRLLIYHTSRLHSGIPARFSGSGSGTDYTLTISSLQPEDFAVYFCQQGNTLPYTFGQGTKLEIKHHHHHHHH | binds
99789 CAR5 - Soluble scFv (scFv, Built here without the leader) scFv: EIVMTQSPATLSLSPGERATLSCRASQDISKYLNWYQQKPGQAPRLLIYHTSRLHSGIPARFSGSGSGTDYTLTISSLQPEDFAVYFCQQGNTLPYTFGQGTKLEIKGGGGSGGGGSGGGGSGGGGSQVQLQESGPGLVKPSETLSLTCTVSGVSLPDYGVSWIRQPPGKGLEWIGVIWGSETTYYSSSLKSRVTISKDNSKNQVSLKLSSVTAADTAVYYCAKHYYYGGSYAMDYWGQGTLVTVSSHHHHHHHH | binds
99790 CAR6 - Soluble scFv (scFv, Built here without the leader) scFv: EIVMTQSPATLSLSPGERATLSCRASQDISKYLNWYQQKPGQAPRLLIYHTSRLHSGIPARFSGSGSGTDYTLTISSLQPEDFAVYFCQQGNTLPYTFGQGTKLEIKGGGGSGGGGSGGGGSGGGGSQVQLQESGPGLVKPSETLSLTCTVSGVSLPDYGVSWIRQPPGKGLEWIGVIWGSETTYYQSSLKSRVTISKDNSKNQVSLKLSSVTAADTAVYYCAKHYYYGGSYAMDYWGQGTLVTVSSHHHHHHHH | binds
